B6: full-length b5R released from the linker-cleaved SCD1-cyt b5-b5R fusion (enzyme, mouse)
chain: GMGAQLSTLSHVVLSPVWFIYSLFMKLFQRSTPAITLENPDIKYPLRLIDKEVISPDTRRFRFALPSPQHILGLPIGQHIYLSTRIDGNLVIRPYTPVSSDDDKGFVDLVVKVYFKDTHPKFPAGGKMSQYLENMKIGDTIEFRGPNGLLVYQGKGKFAIRADKKSNPVVRTVKSVGMIAGGTGITPMLQVIRAVLKDPNDHTVCYLLFANQSEKDILLRPELEELRNEHSARFKLWYTVDKAPDAWDYSQGFVNEEMIRDHLPTPGEEPLILMCGPPPMIQFACLPNLERVGHPKERCFTF

Test in all cases: SEC
The target in assay [1] is SCD1 released from the linker-cleaved SCD1-cyt b5 fusion (mouse).
Assay [2] deals with B6.
The target in assay [3] is T1, SCD1 released from the linker-cleaved SCD1-cyt b5-b5R fusion (mouse, UniProt P13516 1-355).
T1 sequence: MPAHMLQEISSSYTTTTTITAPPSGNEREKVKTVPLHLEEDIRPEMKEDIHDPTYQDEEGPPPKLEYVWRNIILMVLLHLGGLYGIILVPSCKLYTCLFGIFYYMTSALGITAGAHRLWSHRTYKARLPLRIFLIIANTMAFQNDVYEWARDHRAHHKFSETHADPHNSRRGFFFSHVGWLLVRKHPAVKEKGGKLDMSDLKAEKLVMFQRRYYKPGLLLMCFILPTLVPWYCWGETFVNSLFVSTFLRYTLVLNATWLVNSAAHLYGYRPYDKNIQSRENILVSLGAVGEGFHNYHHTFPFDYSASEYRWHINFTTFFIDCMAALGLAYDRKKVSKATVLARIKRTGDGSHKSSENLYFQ

The target of assay [4] is T2, full-length b5R released from the linker-cleaved cyt b5-b5R fusion (mouse, UniProt Q9DCN2 1-301).
T2 sequence: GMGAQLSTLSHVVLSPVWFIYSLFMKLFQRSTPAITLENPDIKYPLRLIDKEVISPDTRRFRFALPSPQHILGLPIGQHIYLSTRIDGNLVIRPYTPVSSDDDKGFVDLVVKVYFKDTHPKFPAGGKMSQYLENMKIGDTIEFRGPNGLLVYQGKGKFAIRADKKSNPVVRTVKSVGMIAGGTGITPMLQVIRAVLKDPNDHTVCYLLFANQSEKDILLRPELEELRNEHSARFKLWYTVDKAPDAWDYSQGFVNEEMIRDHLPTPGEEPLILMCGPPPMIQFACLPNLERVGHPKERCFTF

The target in assay [5] is T2, full-length b5R released from the …. This is another data set of the same source.

Read-outs that look alike come from different tables or passages of the source.

Turning to “full-length cyt b5 M126A released from the linker-cleaved SCD1-cyt b5 fusion (from UniProt P56395 1-134) (natural protein)”, the percent of cyt b5 dissociated from the complex in assay [1] was 50%.

B1: full-length cyt b5 released from the linker-cleaved SCD1-cyt b5-b5R fusion (natural protein, mouse)
chain: GMAGQSDKDVKYYTLEEIQKHKDSKSTWVILHHKVYDLTKFLEEHPGGEEVLREQAGGDATENFEDVGHSTDARELSKTYIIGELHPDDRSKIAKPSDTLITTVESNSSWWTNWVIPAISALAVALMYRLYMAEDENLYFQ
With B1, the binding result in assay [2] and in assay [3] was “binds” in each case.

B2: full-length cyt b5 L121 Trp mutant released from the linker-cleaved cyt b5-b5R fusion (natural protein, mouse)
chain: MAGQSDKDVKYYTLEEIQKHKDSKSTWVILHHKVYDLTKFLEEHPGGEEVLREQAGGDATENFEDVGHSTDARELSKTYIIGELHPDDRSKIAKPSDTLITTVESNSSWWTNWVIPAISAWAVALMYRLYMAEDENLYFQ
B2: the binding result in assay [4] was “binds”.

B3: full-length cyt b5 released from the linker-cleaved cyt b5-b5R fusion (natural protein, mouse)
chain: MAGQSDKDVKYYTLEEIQKHKDSKSTWVILHHKVYDLTKFLEEHPGGEEVLREQAGGDATENFEDVGHSTDARELSKTYIIGELHPDDRSKIAKPSDTLITTVESNSSWWTNWVIPAISALAVALMYRLYMAEDENLYFQ
B3: the binding result in assay [5] was “binds”.

B4: full-length cyt b5 V123 Trp mutant released from the linker-cleaved cyt b5-b5R fusion (natural protein, mouse)
chain: MAGQSDKDVKYYTLEEIQKHKDSKSTWVILHHKVYDLTKFLEEHPGGEEVLREQAGGDATENFEDVGHSTDARELSKTYIIGELHPDDRSKIAKPSDTLITTVESNSSWWTNWVIPAISALAWALMYRLYMAEDENLYFQ
With B4, the binding result in assay [4] is recorded as “binds”.

B5: full-length cyt b5 A124 Trp mutant released from the linker-cleaved cyt b5-b5R fusion (natural protein, mouse)
chain: MAGQSDKDVKYYTLEEIQKHKDSKSTWVILHHKVYDLTKFLEEHPGGEEVLREQAGGDATENFEDVGHSTDARELSKTYIIGELHPDDRSKIAKPSDTLITTVESNSSWWTNWVIPAISALAVWLMYRLYMAEDENLYFQ
With B5, the binding result in assay [4] is reported as “binds”.
B6: in assay [3], the binding result was “binds”.

The record behind these values is doi:10.1101/2021.11.13.468331 (bioRxiv, 2021).
